In publication PMC7295030, “Aggregation pathways of human γ D crystallin induced by metal ions revealed by time dependent methods” (PeerJ, 2020):

Target: the molecule itself
Assay: dynamic light scattering; HγD 50 µM with 1.5 equivalents of CuSO4, 10 mM ammonium acetate pH 7.2, 50 mM NaCl, 37 °C, measured every 1.6 min during 12 h

B1: Human γD crystallin (natural protein)
chain: GKITLYEDRGFQGRHYECSSDHPNLQPYLSRCNSARVDSGCWMLYEQPNYSGLQYFLRRGDYADHQQWMGLSDSVRSCRLIPHSGSHRIRLYEREDYRGQMIEFTEDCSCLQDRFRFNEIHSLNVLEGSWVLYELSNYRGRQYLLMPGDYRRYQDWGATNARVGSLRRVIDFS
notes: Human γD crystallin (HγD), UniProt P07320; Only the vector pET16b is named; For NMR the protein was 15N-labelled (1H-15N HSQC); also called HγD; human gamma D crystallin; source: E. coli BL21-RIL (plasmid pET16b-HγD), purified (Q-Sepharose, Sephadex 200)
binding result: binds
